± gives the uncertainty stated by the source.

Among the data in the Human Domainome abundance scans (Beltran et al. 2025) are abundance fitness values, retold here.

Sequences and labels used below:
B1: Storkhead-box protein 2, residues 64 to 141; numbered along this chain, Q9P2F5 (parent)
chain: SPISQSQFIPLGEILCLAISAMNSARKPVTQEALMEHLTTCFPGVPTPSQEILRHTLNTLVRERKIYPTPDGYFIVTP

In the data set the parent is B1. Kind of data set: abundance fitness (aPCA) (normalised: wild type 0, dead -1); higher = more abundant; growth selection in yeast, the domain comes from the species named. To be noted: Homo sapiens.
As to SPISQSQFIPLGEILCLAISAMNSARKPVTQEALMEHLTTCFPGVPTPSQEILRHTLNTLVRERKIYPTPDGYFIVTA [P78A], the abundance fitness was -0.05 ± 0.064.
Consider SPISQSQFIPLGEILCLAISAMNSARKPVTQTALMEHLTTCFPGVPTPSQEILRHTLNTLVRERKIYPTPDGYFIVTP [E32T], for which the abundance fitness came out at 0.008 ± 0.091.
Consider SPISQSQFIPLGEILCLAISAMNFARKPVTQEALMEHLTTCFPGVPTPSQEILRHTLNTLVRERKIYPTPDGYFIVTP [S24F], for which the abundance fitness was -0.162 ± 0.08.
The same measure for SPISQSQFIPLGEILCLAISAMNHARKPVTQEALMEHLTTCFPGVPTPSQEILRHTLNTLVRERKIYPTPDGYFIVTP [S24H]: -0.141 ± 0.095; for SPISQSQFIPLGEILCLAISAMNCARKPVTQEALMEHLTTCFPGVPTPSQEILRHTLNTLVRERKIYPTPDGYFIVTP [S24C]: -0.084 ± 0.066; for SPISQSQFIPLGEILCLAISAMNEARKPVTQEALMEHLTTCFPGVPTPSQEILRHTLNTLVRERKIYPTPDGYFIVTP [S24E]: 0.009 ± 0.048.
The same measure for SPISQSQFIPLGEILCLAISAMNSARKPVTQEALLEHLTTCFPGVPTPSQEILRHTLNTLVRERKIYPTPDGYFIVTP [M35L]: -0.058 ± 0.062; for SPISQSQFIPLGEILCLAISAMNSARKPVTQEALMEHLTTCFPGVPAPSQEILRHTLNTLVRERKIYPTPDGYFIVTP [T47A]: -0.082 ± 0.034.
As to SPISQSQFIPLGEILCLAISAMNSARKPVTQEALMEHLTTCFPGVPWPSQEILRHTLNTLVRERKIYPTPDGYFIVTP [T47W], the abundance fitness is -0.397 ± 0.04.
Turning to SPISQSQFIPLGEILCLAISAMNSARKPVTQEALMEHLTTCFPGVPVPSQEILRHTLNTLVRERKIYPTPDGYFIVTP [T47V], the abundance fitness was determined as 0.071 ± 0.031.
Turning to SPISQSQFIPLGEILCLAISAMNSARKPVTQEALMEHLTTCFPGVPTWSQEILRHTLNTLVRERKIYPTPDGYFIVTP [P48W], the abundance fitness was -0.28 ± 0.045.
Under SPISQSQFIPFGEILCLAISAMNSARKPVTQEALMEHLTTCFPGVPTPSQEILRHTLNTLVRERKIYPTPDGYFIVTP [L11F] stands 0.054 ± 0.12; under SPISQSQFIPYGEILCLAISAMNSARKPVTQEALMEHLTTCFPGVPTPSQEILRHTLNTLVRERKIYPTPDGYFIVTP [L11Y], -0.008 ± 0.1.
The same measure for SPISQSQFIPLGEILCLAISAMNSARKPVTQEALMEHLTTCFPGVPTPSQEILRHTLNTLVRERKIQPTPDGYFIVTP [Y67Q]: -0.017 ± 0.091; for SPISQSQVIPLGEILCLAISAMNSARKPVTQEALMEHLTTCFPGVPTPSQEILRHTLNTLVRERKIYPTPDGYFIVTP [F8V]: -0.063 ± 0.043; for SPISQSQFIPLGEILCLAISAMNSARKPVTQEALMEHLTTCFPGVPTPSQEILRFTLNTLVRERKIYPTPDGYFIVTP [H55F]: -0.057 ± 0.08.
As to SPISQSQFIPLGEILCLAISAMNSARKSVTQEALMEHLTTCFPGVPTPSQEILRHTLNTLVRERKIYPTPDGYFIVTP [P28S], the abundance fitness was -0.087 ± 0.047.
Under SPISQSQFIPLGEILCLAISAMNSARKPVTQEALMEHLTTCFPGVPTPSQEILRHTLNTLVRERKIYPTPDGYFIVAP [T77A] stands -0.019 ± 0.057; under SPISQSQFIPLGEILCLAISAMNSARKPVTQEALMEHLTTCFPGVPTPSQEILRHTLNTLVRERKIYPTPDGYFIVHP [T77H], -0.084 ± 0.079; under SPISQSQFIPLGEILCLAISAMNSARKPVTQEALMEHLTTCFPGVPTPSQEILRHTLNTLVRERKIYPTPDGYFIVFP [T77F], -0.073 ± 0.076.
SPISQSQFIPLGEILCLAISAMNSARKPVTQEALMEHLTTCFPGVPTPSQEILRHLLNTLVRERKIYPTPDGYFIVTP [T56L]: the abundance fitness stood at 0.054 ± 0.043.
Turning to SPISQSQFIPLGEILCLAISAMNSARKPVTQEALMEHLTTCFPGVPTPSQEILRHALNTLVRERKIYPTPDGYFIVTP [T56A], the abundance fitness was -0.046 ± 0.05.
The same measure for SPISQSQFIPLGEILCLAISAMNSARKPVTQEALMEHLTTCFPGVPTPSQEILRHTLNTLVRERKIYPTPDTYFIVTP [G72T]: -0.132 ± 0.095.
Turning to SPISQSQFIPLGEILCLAISAMNSARKPVTQEALMEHLTTCFPGVPTPSQEILRHTLNTLVRERKIYPTPDSYFIVTP [G72S], the abundance fitness is -0.121 ± 0.04.
On to SPISQSQFIPLGEILCLAISAMNSARKPVTQEALMEHLTTCFPGVPTPSQEILRHTLNTLVRERKIYSTPDGYFIVTP [P68S], for which the abundance fitness stood at 0.059 ± 0.049.
With SPISQSQFIPLGEILCLAISAMNSARKPVTQEALMEHLTTCFPGVPTPSQEILRHTLNTLVRERKIYPTPDGYFIFTP [V76F], the abundance fitness is -0.012 ± 0.096.
On to SPISQSQFIPLGEILCLAISAMNSARKPVTQEALMEHYTTCFPGVPTPSQEILRHTLNTLVRERKIYPTPDGYFIVTP [L38Y], for which the abundance fitness was -0.391 ± 0.13.
Turning to SPISQSEFIPLGEILCLAISAMNSARKPVTQEALMEHLTTCFPGVPTPSQEILRHTLNTLVRERKIYPTPDGYFIVTP [Q7E], the abundance fitness was 0.023 ± 0.17.
On to SPISQSQFIPLGEILCLAISAMNSARKPVTQEALMEHLTTCFPGVPTPSQEILRHTLNTLVRCRKIYPTPDGYFIVTP [E63C], for which the abundance fitness is -0.043 ± 0.055.
Take SPISQSQFIPLGEILCLAISAMNSARKPVTQEALMEHLTTCFPGVPTPSPEILRHTLNTLVRERKIYPTPDGYFIVTP [Q50P]: the abundance fitness was -0.055 ± 0.081.
Take SPISQSQFIPLGEILCLAISAMNSARKPVTQEALMEHLTTCFPGVPTPSQEILRHTPNTLVRERKIYPTPDGYFIVTP [L57P]: the abundance fitness was -1.22 ± 0.14.
As for SPISQSQFIPLGEILCLAISAMNSARKPVTQEALMEHLTTCFPGVPTPSQEILRHTLNPLVRERKIYPTPDGYFIVTP [T59P], the abundance fitness was -0.921 ± 0.1.
Turning to SPISQSQFIPLGEILCLAISAMNSARKPVTQEALMEHLYTCFPGVPTPSQEILRHTLNTLVRERKIYPTPDGYFIVTP [T39Y], the abundance fitness is 0.024 ± 0.11.
Consider SPISQSQFIPLGEILCLAISAMNSARKPVTQEALMEHLGTCFPGVPTPSQEILRHTLNTLVRERKIYPTPDGYFIVTP [T39G], for which the abundance fitness was 0.019 ± 0.051.
Take SPISQSQFIPLGEILCLAISAMNSARKPVTQEALMEHLPTCFPGVPTPSQEILRHTLNTLVRERKIYPTPDGYFIVTP [T39P]: the abundance fitness was -0.076 ± 0.05.
